Data from patent US20120083036A1, “POLYSACCHARIDE TRANSFERASE” (ADELAIDE RESEARCH AND INNOVATION PTY LTD, priority 2006, published 2012).
“Also recorded” adds a separate entry of the source. Read-outs that look alike come from different tables or passages of the source.

Experiments:
HvXET5 [1] = target: T1, HvXET5 (Hordeum vulgare, UniProt P93668); details: 1 nM HvXET5, pH 6
Description: The effect of Ca^2+ (as calcium chloride) and Mg^2+ (as magnesium sulfate), both in 0-15 mM concentration ranges, and of EDTA in a 0-20 mM concentration range, were determined by incubating 1 nM HvXET5 in 100 mM succinate buffer, pH 6. Enzyme activities were determined radiometrically as specified above, in triplicate and with a standard error of 8-10%.

HvXET5 [2] = target: T1, HvXET5; test: pH optimum and enzyme stability of HvXET5; assay type: biochemical, barley (Hordeum vulgare L., cv. Clipper)
Description: The effect of pH on the activity of HvXET5 was determined by incubating 1 nM HvXET5 at 30° C. for 60 min in 50 mM citric acid/100 mM sodium dihydrophosphate (McIlvaine) buffers, pH 4.0-8.5 in the presence of 0.02% (w/v) BSA. […] The thermal stability of HvXET5 was determined after 15 min incubation at 0-70° C. The freeze/thaw stability of HvXET5 at 1 nM concentration was determined after three cycles of freezing (−80° C.) and thawing (4° C.), each of 3 min duration. Activity was subsequently measured at 30° C. in 100 mM ammonium acetate buffer, pH 6, containing 5 mM calcium chloride, without and with the addition of 10% (v/v) glycerol. Enzyme activity was determined radiometrically as specified above, and expressed as % activity relative to maximal activity. Assays were performed in triplicate and standard errors of 8-14% were observed.

HvXET5 [3] = target: T1, HvXET5; test: Radiometric activity assay of HvXET5 with TXG and [3H]-labelled XXXGol; assay type: biochemical, barley (Hordeum vulgare L., cv. Clipper); details: purified enzyme; 30° C., pH 6.0, 0.3% (w/v) TXG
Description: The activity of HvXET5 during enzyme purification was determined radiometrically at 30° C. in 100 mM succinate or ammonium acetate buffers, pH 6.0, containing 5 mM calcium chloride, 0.3% (w/v) TXG and [^3H]-labelled xyloglucan-derived saccharide heptaitol (XXXGol, specific radioactivity 83 MBq·μmol^−1) (Fry, et al., Biochem. J. 282, 821-828, 1992) with approximately 30,000 dpm per reaction mixture. The radioactivity incorporated in reaction products was counted on 2×1 cm Whatman chromatography 3MM paper strips in plastic vials and using LSC6500 Scintillation counter (Beckman, Fullerton, USA) with approximately 48% efficiency for tritium, using EcoLume scintillation fluid, and with 70% quenching. Enzyme activity of HvXET5 during purification is expressed in katals, where 1 kat represents 1 mol of product formed per s; specific activity is expressed in pkat·mg^−1 protein.

[4] = substrate: OC[C@@H](O)[C@@H](O[C@@H]1O[C@H](CO[C@H]2OC[C@@H](O)[C@H](O)[C@H]2O)[C@@H](O[C@@H]2O[C@H](CO[C@H]3OC[C@@H](O)[C@H](O)[C@H]3O)[C@@H](O[C@@H]3O[C@H](CO[C@H]4OC[C@@H](O)[C@H](O)[C@H]4O)[C@@H](O)[C@H](O)[C@H]3O)[C@H](O)[C@H]2O)[C@H](O)[C@H]1O)[C@H](O)[C@@H](O)CO; test: Km and kcat constants of HvXET5; assay type: biochemical, barley (Hordeum vulgare L., cv. Clipper); details: other: acceptor substrate
[5] = concentrations between 5 and 15 mM

Molecule: O=S(=O)([O-])[O-].[Mg+2] [Mg^2+, magnesium sulfate]
- Inhibition of HvXET5 activity (HvXET5 [1]; [5]): 3-4%

Molecule: OCC(O)CO [glycerol]
- Effect on HvXET activity after freeze-thawing cycles (HvXET5 [2]; 10% (v/v) addition): no effect

Molecule: ethylenediamine tetraacetic (disodium salt, dihydrate) [EDTA]
- Inhibition of HvXET5 activity (HvXET5 [1]; 2-20 mM concentration ranges): approximately 30%

Molecule: [Ca+2].[Cl-].[Cl-] [Ca^2+, calcium chloride]
- Stimulation of HvXET5 activity (HvXET5 [1]; [5]): 7-8%

B1: HvXET5: barley xyloglucan xyloglucosyl transferase (XET isoenzyme) purified from extracts of 7-day-old barley seedlings (protein)
chain: MKATAGALLAVVATVLLRGIAAAPPRKPVDVPFEKNYVPTWAEDHIHYVNGGREVQLSLDKTTGTGFQTRGSYLFGHFSMHIKLVGGDSAGTVTAFYLSSQNSEHDEIDFEFLGNRTGQPYILQTNVFSGGKGDREQRIYLWFDPTKDYHSYSVLWNLYMIAFFVDDTPIRVFKNSKDLGVRYPFDQPMKLYSSLWNADDWATRGGREKTDWSKAPFVASYRGFHVDGCEASAEAKLCATQGARWWDQPEFQDLDAAQYRRLAWVRKEHTIYNYCTDRERYAAMSPECKRDRDV
modifications: Hordeum vulgare
notes: barley xyloglucan xyloglucosyl transferase (XET isoenzyme) purified from extracts of 7-day-old barley seedlings
- Specific activity (HvXET5 [3]): 3,630 pkat·mg^−1
- Activity at 0° C. relative to activity observed at 30° C. (HvXET5 [2]; 0° C.): approximately 40%
- pH optimum (HvXET5 [2]; 30° C., McIlvaine buffers pH 4.0-8.5): 6.0
- Freeze/thaw stability (HvXET5 [2]; several freeze-thaw cycles): did not lose activity
- Storage stability (retention of activity) (HvXET5 [2]; stored at −20° C.): retained its activity for at least a year; also recorded: remained more or less constant for at least a year
- Effect of buffer ionic strength on activity (HvXET5 [2]; succinate, ammonium acetate or sodium phosphate buffers, each at 50-200 mM): unaffected

B2: HvXET5 (Hordeum vulgare) (protein)
chain: APPRKPVDVPFEKNYVPTWAEDHIHYVNGGREVQLSLDKTTGTGFQTRGSYLFGHFSMHIKLVGGDSAGTVTAFYLSSQNSEHDEIDFEFLGNRTGQPYILQTNVFSGGKGDREQRIYLWFDPTKDYHSYSVLWNLYMIAFFVDDTPIRVFKNSKDLGVRYPFDQPMKLYSSLWNADDWATRGGREKTDWSKAPFVASYRGFHVDGCEASAEAKLCATQGARWWDQPEFQDLDAAQYRRLAWVRKEHTIYNYCTDRERYAAMSPECKRDRDV
- Km [4]: 69·10^−6 M
